As a reminder, the Kd is the concentration at which binding is half-saturated.

The test system of data set [1] is AccuPrime Protein II (SsoSSB) (Sulfolobus solfataricus). To be noted: CITED Haseltine and Kowalczykowski 2002; about 3 orders of magnitude higher than AccuPrime protein I; cited from earlier work.
Data set [2] deals with T1, AccuPrime protein (AccuPrime Protein I; MjaSSB, Mja RPA SSB) (Methanococcus jannaschii, UniProt Q58559 Q58559:1-645).
T1 sequence: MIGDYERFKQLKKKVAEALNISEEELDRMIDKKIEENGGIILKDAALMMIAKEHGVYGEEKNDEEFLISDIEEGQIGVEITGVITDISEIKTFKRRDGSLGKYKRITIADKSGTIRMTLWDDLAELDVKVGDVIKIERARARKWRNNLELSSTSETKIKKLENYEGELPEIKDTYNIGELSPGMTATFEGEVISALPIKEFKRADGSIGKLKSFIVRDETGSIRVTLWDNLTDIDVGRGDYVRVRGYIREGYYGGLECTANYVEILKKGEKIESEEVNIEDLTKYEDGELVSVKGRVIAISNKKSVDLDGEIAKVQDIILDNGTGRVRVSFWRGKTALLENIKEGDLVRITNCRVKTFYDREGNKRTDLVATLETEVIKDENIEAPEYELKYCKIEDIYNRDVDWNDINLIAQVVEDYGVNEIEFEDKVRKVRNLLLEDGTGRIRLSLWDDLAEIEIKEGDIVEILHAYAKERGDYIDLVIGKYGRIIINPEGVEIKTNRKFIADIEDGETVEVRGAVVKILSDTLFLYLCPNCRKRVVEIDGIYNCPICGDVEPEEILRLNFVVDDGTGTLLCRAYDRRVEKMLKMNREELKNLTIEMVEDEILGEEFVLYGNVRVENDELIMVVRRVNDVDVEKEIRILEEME
As to the kind of experiment: EMSA; 20 nM oligo, 0-40 nM protein; near-stoichiometric shift, super-shift, weak negative cooperativity; 20 mM Tris-HCl pH 8.4, 50 mM KCl, 1.5 mM MgCl2, 70 C; text calls it 84-mer or 86-mer. To be noted: tags: expressed in E. coli BL21(DE3), Ni-NTA purified; label: 5'-32P. On the procedure: Single stranded DNA binding. AccuPrime protein affinity for secondary structure of the single stranded DNA was tested with the 84 mer synthetic oligonucleotide KP_PALIN_cont: 5′-CTCCTGGATCGACTTCAGTCCGCTGATGATTAGATGTCGTCCTGGATCGACTTCACTCCGCACCCGCTACCAACAACAGTACCC-3′. The oligonucleotide was radiolabeled at the 5′ end in the same manner as the 5′ (ss) substrate for the exo-nuclease activity assay above with the oligonucleotide concentration at 5 μM.
Single stranded DNA binding. The binding affinity of AccuPrime protein to single stranded DNA (ssDNA) was measured using electrophoretic mobility shift assay (EMSA) on 6% horizontal polyacrylamide gel in TBE. The ssDNA molecules used in the assay were synthetic 86-mer oligonucleotides. The 5′ radiolabeled oligonucleotides were incubated with increasing amounts of the protein in 1×PCR buffer (20 mM Tris-HCl, pH 8.4, 50 mM KCl, 1.5 mM MgCl₂) at 70° C. for 5 min, and an aliquot of the reaction mix was loaded on the gel with currents on. The electrophoresis was continued for 1 hr and the gel was autoradiographed after dried.
For orientation: A gel shift assay detects complexes by their altered migration in electrophoresis.

In the case of single-stranded DNA (unspecified), the Kd in data set [1] was 500 nM.

B1: KP_PALIN_cont (ssDNA)
DNA: CTCCTGGATCGACTTCAGTCCGCTGATGATTAGATGTCGTCCTGGATCGACTTCACTCCGCACCCGCTACCAACAACAGTACCC
On to B1, for which the binding result in data set [2] is given as “binds”.

(Values after patent US20070178491, “Compositions and Methods for Synthesizing Nucleic Acids” (INVITROGEN CORPORATION, published 2007).)
